In this test the target is MDM2_(D. rerio) SWIB domain (zebra fish (Danio rerio)). Kind of test: stopped-flow fluorescence kinetics; 10°C, 20 mM sodium phosphate pH 7.4, 150 mM NaCl, 1 mM TCEP; Trp23 emission; MDM2 constant at 0.5–2 μM, p53TAD varied 1–10 μM for k on; k off from displacement of the 1 μM:1 μM complex by 10–20 μM dansylated human p53TAD peptide; K D = k off/k on.

What is called Kd is the concentration at which binding is half-saturated. A low value points to higher affinity. A word on the koff: it is a measure of how fast the partners let go of each other. High values mean fast dissociation, low ones slow dissociation. As a reminder, the kon is the rate constant with which the complex forms. Read a low kon as slower complex formation. The substance p53TAD_(D. rerio)^14–27 (peptide) came in with an equilibrium dissociation constant (Kd) of 1900 nM, an off-rate (koff) of 31 s⁻¹ and a kon of 1.59e+07 M⁻¹ s⁻¹.
The substance p53TAD_(D. rerio)^N26L (peptide) came in with a dissociation constant Kd of 340 nM, a koff of 5.2 s⁻¹ and a kon of 1.55e+07 M⁻¹ s⁻¹.
For the substance p73TAD_(D. rerio) (peptide), the Kd came to 120 nM, the koff stood at 3.7 s⁻¹ and the on-rate constant (kon) stood at 3.2e+07 M⁻¹ s⁻¹.

Values taken from paper PMC10303687.
